Results reported in the supplement of paper PMC9942255.

System: Bacillus subtilis DB104 (SP-AmyQ fusion secretion)
Test: AmyQ secretion efficiency, weighted average sort bin (1 = best secretion, 10 = worst) (bin number (weighted average, 1-10)); higher = lower secretion efficiency
Procedure, shortened: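 The secretion score was taken as the read-frequency-weighted mean bin number, normalised to beads per bin, with low-abundance sequences excluded. Bins came from large-particle flow cytometry sorting of occupied alginate beads (~65 nL, about 0.3 cells each, with fluorescein-starch) into 10 equally populated groups by green/red fluorescence ratio after about 13 h at room temperature and nile red staining. The cells were a B. subtilis DB104 library with mature AmyQ fused to designed signal peptides, integrated at amyE, and each bin's amplicons were Illumina-sequenced.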

Sequence | AmyQ secretion efficiency
MRPVFPLILSAVLFLSCFFGARQTEYSASKR | 8.3
MRPVFPLILSAVLFLSCFFGATQTEASASKR | 2.13
MRPVFPLILSAVLFLSCFFIAGATEASASKR | 3.68
MRPVFPLILSAVLFLSCFKKKRRTRASASKR | 6.66
MRPVFPLILSAVLFLSCFRASASKR | 6.81
MRPVFPLILSAVLFLSCFRGARQTKASASKR | 7.54
MRPVFPLILSAVLFLSCFSTSVAITVTFGARQTEASASKR | 3.9
MRPVFPLILSAVLFLSCFSVSTFFGARQTEASASKR | 2.65
MRPVFPLILSAVLFLSCFTGARQTEASASKR | 3.07
MRPVFPLKKRRVLFLSCFFGARQTEASASKR | 7.34
MRPVFPLKRSAVLFLSCFFGARQTEASASKR | 8.12
MRPVFPLRRRRRRFLSCFFGARQTEASASKR | 7.47
MRPVFPTSQKKYLFLSCFFGARQTEASASKR | 7.29
MRPVFPYTLSAVLFLSCFFGARQTEASASKR | 2.08
MRQRKKAVFVIMISFLIATVNVNTAHAAID | 6.22
MRRGKKLSVAVAASFMSLSISLPGVQAAEG | 1.3
MRRKKKKVVSALSISALALSVSGVASAHEI | 3.9
MRRKKKRVLTMCFLGLILFVPTALADNS | 3.09
MRRKKRKAVLLSLIMLIAGFLISFSFQM | 7.79
MRRKKRKVVGFLSVLGLAAVFPLTAQAEKA | 2.12
MRRKRFTALAVFLLCFMPAAKIEHTQASLL | 5.25

Sequence | AmyQ secretion efficiency
MRRKRKRTSLLLAGLCTAAQMVFVTHASAEES | 2.89
MRRRTDYKKQVVGILLSLAFVLFVFSFSERHE | 6.74
MRRRWRSLALCGLALTLAPCAQAAEP | 2.05
MRRSLALCGLALTLAPCAQAAEP | 2.27
MRRVCFLAALIMAFTLPNSVYAQKP | 2.21
MRRYRKVLTMCFLGLILFVPTALADNS | 1.79
MRSKKILWISLLFALTLIFTMAFSNMSAQAAGK | 2.64
MRSKKLLFTLWISLLFALTLIFTMAFSNMSAQAAGK | 2.87
MRSKKLWISLLFALFTMAFSNMSAQAAGK | 2.16
MRSKKLWISLLFALTLIFAMAFIAMIAQAAGK | 2
MRSKKLWISLLFALTLIFTMAFSNMSAQAAGQ | 2.13
MRSKKLWISLLFALTLIFTMAFSNMSAQHAGK | 6.69
MRSKKLWISLLFALTLIFTMAFSNMSAQPAGK | 3.56
MRSKKLWISLLFALTLIFTMAFSNMSAQRAGK | 6.17
MRSKKLWISLLFALTLIFTMAFSNMSAQWAGK | 6.53
MRSKKLWISLLFALTLIFTMAFSNMSCQAAGK | 2.77
MRSKKLWISLLFALTLIFTMAFSNMSDQAAGK | 2.84
MRSKKLWISLLFALTLIFTMAFSNMSPQAAGK | 4.28
MRSKKLWISLLFALTLIFTMAFSNMSVVTGAQAAGK | 2.11
MRSKKLWISLLFALTLIFVMAFGNMTAQAAGK | 1.9
MRSKKLWISLLFALTLIKKKAFSNMSAQAAGK | 8.69

Sequence | AmyQ secretion efficiency
MRSKKLWISLLFALTLIRKRKKRNMSAQAAGK | 9.84
MRSKKLWISLLFALTLITFTMAFSNMSAQAAGK | 3.27
MRSKKLWISLLFALTLITLLVAFTMAFSNMSAQAAGK | 7.19
MRSKKTWISLLFALTLIFTMAFSNMSAQAAGK | 3.25
MRSYIKFNFIISVLTMCFLGLILFVPTALADNS | 1.36
MRSYIKGTGRCKLGLILFVPTALADNS | 6.59
MRSYIKSKKRCKQQLILFVPTALADNS | 7.44
MRSYIKTFNVLTMCFLGLILFVPTALADNS | 2.59
MRSYIKVKKKCRLGLILFVPTALADNS | 6.78
MRSYIKVKKMCFLGLILFVPTALADNS | 3.9
MRSYIKVLTMCFLGLILFVEEDALADNS | 2.58
MRSYIKVLTMCFLGLILFVFSSLPTALADNS | 2.22
MRSYIKVLTMCFLGLILFVFTALADNS | 7.29
MRSYIKVLTMCFLGLILFVKRRKRRALADNS | 7.48
MRSYIKVLTMCFLGLILFVPALADNS | 6.75
MRSYIKVLTMCFLGLILFVPTALAAEE | 3.07
MRSYIKVLTMCFLGLILFVPTALAAND | 2.11
MRSYIKVLTMCFLGLILFVPTALAANR | 2.08
MRSYIKVLTMCFLGLILFVPTALAARK | 5.25
MRSYIKVLTMCFLGLILFVPTALAEEE | 2.15
MRSYIKVLTMCFLGLILFVPTALCDNS | 3.89
